Experimental data reported in paper PMC9858354, “Studies with neutralizing antibodies suggest CXCL8-mediated neutrophil activation is independent of C-C motif chemokine receptor-like 2 (CCRL2) ligand binding function” (PLOS ONE, 2023).

T1: mouse C-C motif chemokine receptor-like 2 (CCRL2) isoform b, on HEK-muCCRL2 cells (mouse, UniProt O35457 1-360)
T1 construct: C-C motif chemokine receptor-like 2 (CCRL2), mouse, printed as isoform b, codon optimized cDNA; also called murine CCRL2
T1 sequence (looked up): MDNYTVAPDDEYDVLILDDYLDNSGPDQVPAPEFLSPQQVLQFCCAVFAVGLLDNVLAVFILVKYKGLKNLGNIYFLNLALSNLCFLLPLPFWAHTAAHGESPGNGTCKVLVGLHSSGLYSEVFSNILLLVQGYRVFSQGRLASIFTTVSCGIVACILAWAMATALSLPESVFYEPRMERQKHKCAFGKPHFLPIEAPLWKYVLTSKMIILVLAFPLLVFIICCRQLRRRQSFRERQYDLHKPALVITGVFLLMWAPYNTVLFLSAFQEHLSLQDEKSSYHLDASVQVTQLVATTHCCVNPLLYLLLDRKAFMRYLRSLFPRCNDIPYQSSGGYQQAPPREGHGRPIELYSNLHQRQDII

T2: human C-C motif chemokine receptor-like 2 (CCRL2) isoform b, on HEK-huCCRL2 cells (human, UniProt O00421 1-344)
T2 construct: C-C motif chemokine receptor-like 2 (CCRL2), human, isoform b, codon optimized cDNA; No tag is mentioned for the construct; also called human CCRL2
T2 sequence (looked up): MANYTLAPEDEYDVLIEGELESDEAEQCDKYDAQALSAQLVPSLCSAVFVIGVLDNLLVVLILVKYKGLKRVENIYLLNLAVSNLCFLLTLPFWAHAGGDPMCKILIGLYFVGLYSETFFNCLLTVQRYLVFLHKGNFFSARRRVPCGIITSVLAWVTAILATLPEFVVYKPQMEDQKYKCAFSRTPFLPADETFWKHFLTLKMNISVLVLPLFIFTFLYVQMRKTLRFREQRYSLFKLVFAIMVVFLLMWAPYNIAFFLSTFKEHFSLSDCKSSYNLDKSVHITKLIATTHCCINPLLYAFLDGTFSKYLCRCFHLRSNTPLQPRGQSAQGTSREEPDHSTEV

B1: recombinant active mouse chemerin (residues 21-156), unlabeled (ligand, UniProt Q9DD06 21-156, looked up)
chain: EPELSETQRRSLQVALEEFHKHPPVQLAFQEIGVDRAEEVLFSAGTFVRLEFKLQQTNCPKKDWKKPECTIKPNGRRRKCLACIKMDPKGKILGRIVHCPILKQGPQDPQELQCIKIAQAGEDPHGYFLPGQFAFS
notes: active mouse chemerin, Uniprot entry Q9DD06, residues 21-156; Construct is named hIgG1 monovalent Fc-TEV-chemerin; also called murine chemerin; unlabeled murine chemerin; source: HEK 293F, transient, purified (Protein A, TEV cleavage, Protein A and Ni-NTA removal, Superdex 75 SEC); not shown: Fc (human IgG1, monovalent) with TEV site, N-terminal, cleaved
B2: biotin-labeled recombinant active mouse chemerin (residues 21-156) (ligand, UniProt Q9DD06 21-156, looked up)
chain: B1 chain
modifications: biotin (EZ-Link Sulfo-NHS-LC-Biotin, biotin-to-analyte molar ratio 5:1; any reactive primary amine)
notes: active mouse chemerin, Uniprot entry Q9DD06, residues 21-156; also called biotinylated murine chemerin; biotin-labeled murine chemerin; not shown: Fc (human IgG1, monovalent) with TEV site, N-terminal, cleaved
B3: biotin-labeled recombinant active human chemerin (residues 21-157) (ligand, UniProt Q99969 21-157, looked up)
chain: ELTEAQRRGLQVALEEFHKHPPVQWAFQETSVESAVDTPFPAGIFVRLEFKLQQTSCRKRDWKKPECKVRPNGRKRKCLACIKLGSEDKVLGRLVHCPIETQVLREAEEHQETQCLRVQRAGEDPHSFYFPGQFAFS
modifications: biotin (EZ-Link Sulfo-NHS-LC-Biotin, biotin-to-analyte molar ratio 5:1; any reactive primary amine)
notes: active human chemerin, Uniprot entry Q99969, residues 21-157; also called Biotin-chemerin; biotinylated chemerin; not shown: Fc (human IgG1, monovalent) with TEV site, N-terminal, cleaved
B4: recombinant active human chemerin (residues 21-157), unlabeled (ligand, UniProt Q99969 21-157, looked up)
chain: B3 chain
notes: active human chemerin, Uniprot entry Q99969, residues 21-157; Construct is named hIgG1 monovalent Fc-TEV-chemerin; also called label-free chemerin; unlabeled chemerin; source: HEK 293F, transient, purified (Protein A, TEV cleavage, Protein A and Ni-NTA removal, Superdex 75 SEC); not shown: Fc (human IgG1, monovalent) with TEV site, N-terminal, cleaved

Columns and labels:
Settings in all cases: one partner purified
[1] = molecular target: T1, mouse C-C motif chemokine receptor-like …; test: flow cytometry on cells; competition: HEK-huCCRL2 or HEK-muCCRL2 cells incubated with serially diluted unlabeled competitor at 4°C 45 min, then 10 nM biotin-labeled chemerin at 4°C 45 min, RRX-streptavidin; IC50 from four-parameter fit
[2] = molecular target: T1, mouse C-C motif chemokine receptor-like …; test: flow cytometry on cells; serially diluted biotin-labeled ligand on HEK-huCCRL2, HEK-muCCRL2 or parental HEK cells (2x10^4 cells/well, 384-well), PBS + 0.1% BSA, 4°C 45 min, detected with RRX-streptavidin; MFI normalized to parental HEK cell binding; EC50 from four-parameter fit
[3] = molecular target: T2, human C-C motif chemokine receptor-like …; test: SPR; live-cell SPR microscopy (SPRm 200); HEK-huCCRL2 cells seeded on collagen-coated gold slides; analyte injected at 150 ul/min, contact 3 min, dissociation 5 min; running buffer PBS + 0.1% BSA; chemerin 10-400 nM; 1:1 binding model; n = 3
[4] = molecular target: T2, human C-C motif chemokine receptor-like …; test: flow cytometry on cells; serially diluted biotin-labeled ligand on HEK-huCCRL2, HEK-muCCRL2 or parental HEK cells (2x10^4 cells/well, 384-well), PBS + 0.1% BSA, 4°C 45 min, detected with RRX-streptavidin; MFI normalized to parental HEK cell binding; EC50 from four-parameter fit
[5] = molecular target: T2, human C-C motif chemokine receptor-like …; test: flow cytometry on cells; competition: HEK-huCCRL2 or HEK-muCCRL2 cells incubated with serially diluted unlabeled competitor at 4°C 45 min, then 10 nM biotin-labeled chemerin at 4°C 45 min, RRX-streptavidin; IC50 from four-parameter fit

Row | IC50 [1] | EC50 [2] | Kd [3] | koff [3] | kon [3] | EC50 [4] | IC50 [5] | Binder
1 | 21.1 nM |  |  |  |  |  |  | B1
2 |  | 143 nM |  |  |  |  |  | B2
3 |  |  | 8.55 nM | 0.00184 s⁻¹ | 297000 M⁻¹ s⁻¹ | 4.2 nM |  | B3
4 |  |  | 5.49 nM | 0.00116 s⁻¹ | 311000 M⁻¹ s⁻¹ |  | 7.55 nM | B4
